Experimental findings from article PMC3277881 (Molecular Cell, 2011) are described below.

B3: full-length yeast Atg7 (enzyme, yeast (budding yeast), UniProt P38862 1-630, looked up)
chain: MSSERVLSYAPAFKSFLDTSFFQELSRLKLDVLKLDSTCQPLTVNLDLHNIPKSADQVPLFLTNRSFEKHNNKRTNEVPLQGSIFNFNVLDEFKNLDKQLFLHQRALECWEDGIKDINKCVSFVIISFADLKKYRFYYWLGVPCFQRPSSTVLHVRPEPSLKGLFSKCQKWFDVNYSKWVCILDADDEIVNYDKCIIRKTKVLAIRDTSTMENVPSALTKNFLSVLQYDVPDLIDFKLLIIRQNEGSFALNATFASIDPQSSSSNPDMKVSGWERNVQGKLAPRVVDLSSLLDPLKIADQSVDLNLKLMKWRILPDLNLDIIKNTKVLLLGAGTLGCYVSRALIAWGVRKITFVDNGTVSYSNPVRQALYNFEDCGKPKAELAAASLKRIFPLMDATGVKLSIPMIGHKLVNEEAQHKDFDRLRALIKEHDIIFLLVDSRESRWLPSLLSNIENKTVINAALGFDSYLVMRHGNRDEQSSKQLGCYFCHDVVAPTDSLTDRTLDQMCTVTRPGVAMMASSLAVELMTSLLQTKYSGSETTVLGDIPHQIRGFLHNFSILKLETPAYEHCPACSPKVIEAFTDLGWEFVKKALEHPLYLEEISGLSVIKQEVERLGNDVFEWEDDESDEIA

The data set “AUC” deals with the molecule itself. The data set is described as follows: AUC.
For the data set “full-length yeast Atg7”, the target named is B3. Description: ITC. In general terms: In ITC the heat of successive injections is recorded.
Another data set concerns the target T1, Atg3 (yeast) (yeast (budding yeast), UniProt P40344 1-310).
T1 sequence: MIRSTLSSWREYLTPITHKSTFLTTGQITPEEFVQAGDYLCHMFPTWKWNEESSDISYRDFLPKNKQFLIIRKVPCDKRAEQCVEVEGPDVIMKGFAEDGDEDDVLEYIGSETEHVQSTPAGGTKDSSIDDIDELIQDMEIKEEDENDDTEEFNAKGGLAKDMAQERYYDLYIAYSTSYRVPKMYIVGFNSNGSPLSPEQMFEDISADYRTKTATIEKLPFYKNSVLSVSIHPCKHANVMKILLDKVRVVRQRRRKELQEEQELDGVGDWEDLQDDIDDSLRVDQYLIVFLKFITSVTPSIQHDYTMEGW
Description: ITC.

B1: Atg7 C-terminal domain (Atg7^CTD), yeast (domain or fragment, yeast (budding yeast))
chain: SSLLDPLKIADQSVDLNLKLMKWRILPDLNLDIIKNTKVLLLGAGTLGCYVSRALIAWGVRKITFVDNGTVSYSNPVRQALYNFEDCGKPKAELAAASLKRIFPLMDATGVKLSIPMIGHKLVNEEAQHKDFDRLRALIKEHDIIFLLVDSRESRWLPSLLSNIENKTVINAALGFDSYLVMRHGNRDEQSSKQLGCYFCHDVVAPTDSLTDRTLDQMCTVTRPGVAMMASSLAVELMTSLLQTKYSGSETTVLGDIPHQIRGFLHNFSILKLETPAYEHCPACSPKVIEAFTDLGWEFVKKALEHPLYLEEISGLSVIKQEVERLGNDVFEWEDDESDEIA
In the case of B1, in the data set “AUC”, the “stoichiometry N” value came out at 2.

B2: Atg3^ΔFR (yeast Atg3 with the FR region, residues 86-159, deleted) (enzyme, yeast (budding yeast))
chain: MIRSTLSSWREYLTPITHKSTFLTTGQITPEEFVQAGDYLCHMFPTWKWNEESSDISYRDFLPKNKQFLIIRKVPCDKRAEQCVEAKDMAQERYYDLYIAYSTSYRVPKMYIVGFNSNGSPLSPEQMFEDISADYRTKTATIEKLPFYKNSVLSVSIHPCKHANVMKILLDKVRVVRQRRRKELQEEQELDGVGDWEDLQDDIDDSLRVDQYLIVFLKFITSVTPSIQHDYTMEGW
Take B2: the “fold change of Kd against Atg3” value with full-length yeast Atg7 was greater than 40 fold. Regarding B3, in “AUC”, the “stoichiometry N” value amounted to 2.

B4: synthetic peptide encompassing Atg3 residues 128-144 (Atg3^FRpep) (peptide, UniProt P40344 128-144, looked up)
peptide: SIDDIDELIQDMEIKEE
In the case of B4, in the data set with full-length yeast Atg7, binding was put at a Kd of 5.9 µM.

B5: Atg7 N-terminal domain (Atg7^NTD), yeast (domain or fragment, yeast (budding yeast), UniProt P38862 1-289, looked up)
chain: MSSERVLSYAPAFKSFLDTSFFQELSRLKLDVLKLDSTCQPLTVNLDLHNIPKSADQVPLFLTNRSFEKHNNKRTNEVPLQGSIFNFNVLDEFKNLDKQLFLHQRALECWEDGIKDINKCVSFVIISFADLKKYRFYYWLGVPCFQRPSSTVLHVRPEPSLKGLFSKCQKWFDVNYSKWVCILDADDEIVNYDKCIIRKTKVLAIRDTSTMENVPSALTKNFLSVLQYDVPDLIDFKLLIIRQNEGSFALNATFASIDPQSSSSNPDMKVSGWERNVQGKLAPRVVDLS
Consider B5, for which the Kd in the data set with Atg3 (yeast) worked out at 1850 nM.

One may read the stoichiometry N as a count of units in the complex or per binding partner. For orientation: Kd means a measure of binding affinity in units of concentration. Higher therefore signals weaker binding.
